Measurements from patent US20080305097A1, “Use of Protease or a Protease Inhibitor for the Manufacture of Medicaments” (YEDA RESEARCH AND DEVELOPMENT CO., LTD., priority 2004, published 2008).

Key:
progenitors = assay: Progenitor mobilization by RANKL, semisolid cultures; format: in vivo, Balb/c mice; settings: RANKL 2 daily subcutaneous injections of 5 mcg for 3 days
Procedure: (A) Progenitor mobilization assayed in semisolid cultures, induced by SDF-1 (10 mcg), HGF (1.5 mcg) injected for 5 days and sRANKL (2×5 mcg) injected for the first 3 days. (B) RANKL induced mobilization is inhibited by administration of anti CXCR4 antibodies (10 mcg) and MMP2/9 inhibitor (100 mcg), injected for the last 2 days. (C) Osteoclast precursors in the BM of treated mice were assayed by culturing BM cells for 4 days with M-CSF and sRANKL, followed by TRAP staining to detect mature active osteoclasts.
(§1) Mice were administrated with RANKL as follows: 2 daily subcutaneous injections of 5 mcg for 3 days and after two more days in the absence of RANKL. The following parameters were monitored in both treated and control untreated mice: TRAP+ activated osteoclasts (FIG. 11A), induction of osteoclast proteases MMP-9 (FIG. 11B) and CTK (FIG. 11C) in the BM and mobilization (FIG. 12).

TRAP+ active osteoclasts = assay: In vivo osteoclast activation by RANKL, TRAP staining; design: species or system Balb/c mice; settings: RANKL 2 daily subcutaneous injections of 5 mcg for 3 days
Procedure: (§2) Balb/c mice were injected with soluble murine RANKL (2 injections per day, 5 mcg per subcutaneous injection). Bones of treated mice were stained for TRAP (in red) indicating mature activated osteoclasts (A). Levels of MMP-9 in BM fluids were determined by zymography assay (B). The expression of CTK mRNA was detected by RT-PCR (C).
as §1

MMP-9 = MMP-9 in BM after RANKL, zymography; format: in vivo, Balb/c mice; settings: RANKL 2 daily subcutaneous injections of 5 mcg for 3 days
Procedure: as §2, §1

CTK = CTK expression in BM after RANKL, RT-PCR; format: in vivo, Balb/c mice; settings: RANKL 2 daily subcutaneous injections of 5 mcg for 3 days
Procedure: as §2, §1

SDF-1 [1] = assay: SDF-1 transcription (RT-PCR) and secretion (ELISA) in primary calvaria osteoblasts; format: cell-based, mouse; settings: 50 ng/ml, 3 days
Procedure: Osteoblast were incubated with G-CSF, HGF or remained untreated, and SDF-1 transcription and expression was determined in such cells (FIG. 9).
Primary calvaria osteoblasts were cultured for 3 days in the presence of SDF-1 (PeproTech, 100 […]), HGF (PeproTech, 50 ng/ml) and G-CSF (Filgrastin, Roche, 50 ng/ml). Conditioned media was collected to determine SDF-1 concentration by ELISA, as described in Example 2. Determination of SDF-1 transcription and expression as in Example 2.

[2] = tested on: TRAP+ multinucleated osteoclasts; assay: Osteoblast/BM co-culture, TRAP+ multinucleated osteoclast count; format: cell-based, mouse; settings: G-CSF 50 ng/ml, HGF 50 ng/ml, SDF-1 10 and 100 ng/ml; 5 days
Procedure: Osteoclast precursors are stimulated by cell-cell contact with osteoblasts to become activated multinucleated TRAP+ bone resorbing cells. To obtain active osteoclasts in vitro, a clvarian osteoblasts are incubated with Vitamine D3 and PG2E which potentiate their M-CSF production and RANKL expression, needed for osteoclast activation. BM cells which contain osteoclast precursors are seeded then on the osteoblast monolayer, for 5 days, to obtain active multinucleated osteoclasts.
A co-culture of primary mouse osteoblasts and BM (containing ocl precursors as detailed above) was seeded in the presence of G-CSF (50 ng/ml), HGF (50 ng/ml), or SDF-1 (10 and 100 ng/ml). Five days later, TRAP+ multinucleated osteoclasts in the cultures were stained (as described in Example 1) and counted 5 days later.

SDF-1 [3] = assay: Migration of Pre B ALL G2 cells towards CTK treated SDF-1; format: cell-based; settings: SDF-1 125 ng, CTK 1 mcg/ml, about 16 hours, 37° C.
Procedure: We employed an in-vitro functional assay for SDF-1 (Example 10) to check the effect of CTK on SDF-1 activity. The assay consisted on migration of leukemic Pre B ALL G2 (cells which migrate very well to relative low concentrations of SDF-1, Spiegel, Blood, 2004) to SDF-1.
In brief, SDF-1 (125 ng) was incubated with CTK ([…]) in a 100 ul reaction volume adjusted with PBS, for about 16 hours in 37° C. In some samples, protease inhibitor (PI, 1 ul, Sigma, containing the cystein protease inhibitor E-64) was preincubated with CTK for 1.5 hrs, in 37° C., before SDF-1 was added. The leukemic Pre B ALL G2 cells were loaded on transwells and migration towards CTK treated as well as non treated SDF-1 was measured.
125 ng/ml SDF-1α was kept untreated or incubated with CTK (1 mcg/ml) for overnight in 37° C. To inhibit enzymatic activity of CTK, 1 and 2 mcl of protease inhibitor (Sigma) was incubated with CTK for 1.5 h before adding to SDF-1. RPMI (600 μl) supplemented with 10% FCS was added with tested SDF-1 to the lower chamber of a Costar 24-wells transwell (Corning (pore size 5 μm), NY). 1×10^5 pre B ALL G2 cells in 100 μl medium were loaded to the upper chamber and were allowed to migrate for 4 hours at 37° C. Migrating cells were collected from the lower chamber and counted for 60 seconds using a FACSCalibur. Control spontaneous migration was performed without SDF-1α in the lower chamber.

SDF-1 [4] = assay: SDF-1 cleavage by CTK, SDS-PAGE and blot with anti SDF-1 polyclonal Ab or K15C; format: biochemical; settings: SDF-1 20 ng, CTK 1.76 ug/ml
Procedure: SDF-1 (20 ng) was incubated with CTK (1.76 ug/ml) for 0, 15, 30, and 60 minutes at 37OC. Samples were subjected than to SDS-PAGE, blotted and detected with anti SDF-1 polyclonal Ab or with the monoclonal Ab K15C, which specifically binds the amino terminal part of the chemokine.
We further explored the kinetics of SDF-1 cleavage by CTK at a time scale of minutes (FIG. 14). Samples of SDF-1 (20 ng) were incubated with CTK (1.76 ug/ml) for 0, 15, 30, 60, 120 and 240 minutes at 37° C. After collection, the samples were subjected to SDS-PAGE and blotted and detected with anti SDF-1 polyclonal Ab (R&D) or with the monoclonal Ab K15C which specifically binds the amino terminal part of the chemokine.

B1: RANKL: Receptor Activator of NK-kappaB Ligand, soluble murine, osteoclast differentiating factor (protein, UniProt O35235 70-316, looked up)
extracellular domain: YFRAQMDPNRISEDSTHCFYRILRLHENADLQDSTLESEDTLPDSCRRMKQAFQGAVQKELQHIVGPQRFSGAPAMMEGSWLDVAQRGKPEAQPFAHLTINAASIPSGSHKVTLSSWYHDRGWAKISNMTLSNGKLRVNQDGFYYLYANICFRHHETSGSVPTDYLQLMVYVVKTSIKIPSSHNLMKGGSTKNWSGNSEFHFYSINVGGFFKLRAGEEISIQVSNPSLLDPDQDATYFGAFKVQDID
modifications: extracellular domain
mobilization of progenitors (progenitors): mobilization of progenitors | formation of TRAP+ active osteoclasts (TRAP+ active osteoclasts): induced formation of TRAP+ active osteoclasts along the endosteum | MMP-9 expression in the bone marrow (MMP-9): induction | CTK expression in the bone marrow (CTK): induction

B2: G-CSF: granulocyte colony-stimulating factor (Filgrastin, Roche) (protein, UniProt P09919 31-207, looked up)
Granulocyte …: TPLGPASSLPQSFLLKCLEQVRKIQGDGAALQEKLVSECATYKLCHPEELVLLGHSLGIPWAPLSSCPSQALQLAGCLSQLHSGLFLYQGLLQALEGISPELGPTLDTLQLDVADFATTIWQQMEELGMAPALQPTQGAMPAFASAFQRRAGGVLVASHLQSFLEVSYRVLRHLAQP
modifications: filgrastim
SDF-1 transcription in osteoblasts (SDF-1 [1]): induce | SDF-1 production in osteoblasts (SDF-1 [1]; conditioned media ELISA): induce | level of activated TRAP+ osteoclasts [2]: significantly increased

B3: CTK: cathepsin K, lysosomal cysteine protease, the major osteoclast bone resorbing enzyme (protein, UniProt P43235 115-329, looked up)
Cathepsin K: APDSVDYRKKGYVTPVKNQGQCGSCWAFSSVGALEGQLKKKTGKLLNLSPQNLVDCVSENDGCGGGYMTNAFQYVQKNRGIDSEDAYPYVGQEESCMYNPTGKAAKCRGYREIPEGNEKALKRAVARVGPVSVAIDASLTSFQFYSKGVYYDESCNSDNLNHAVLAVGYGIQKGNKHWIIKNSWGENWGNKGYILMARNKNNACGIANLASFPKM
chemotactic activity of SDF-1 after incubation with CTK (SDF-1 [3]): abolished | kinetics of SDF-1 cleavage by CTK (SDF-1 [4]; 0-240 minutes, 37° C.): fast and site specific SDF-1 cleavage | site of SDF-1 cleavage by CTK (SDF-1 [4]; detection with K15C (amino terminal part)): N-terminally cleaved
